Data on one molecule can be found in patent US9879094B2, “Nucleic acid molecules encoding for BACE1 antibodies” (Genentech, Inc., priority 2010, dated 2018).

Several values for one entry are separate records, joined by “and”; a condition that tells them apart may be missing. Identical values can stand only once.

The target in one data set is BACE1 (Homo sapiens, UniProt P56817). Nature of the data set: HTRF BACE1 enzyme activity assay (long peptide Bi27). The class given is biochemical. The note with it: IgG, long peptide substrate. The protocol: The HTRF assay was performed as follows. […] The proteolytic reaction mixture was incubated at ambient temperature for 75 minutes and was quenched by the addition of 5 μL HTRF detection mixture containing 2 nM Streptavidin-D2 and 150 nM of 6E10 anti-amyloid beta antibody (Covance, Emoryville, Calif.) labeled with Europium cryptate in detection buffer (200 mM Tris pH 8.0, 20 mM EDTA, 0.1% BSA, and 0.8M KF). The final reaction mixture was incubated at ambient temperature for 60 minutes and the TR-FRET signal was measured using an EnVision Multilabel Plate Reader™ (Perkin-Elmer) at an excitation wavelength of 320 nm and emission wavelengths of 615 and 665 nm. Reactions lacking BACE1 enzyme (0 BACE) and reactions containing lacking anti-BACE1 antibodies (PBS (100% BACE1 Activity) were used as controls.
Fab proteins of 6 clones were purified and subjected for HTRF enzyme activity assay, as described above.
The affinity matured YW412.8.31 anti-BACE1 antibody was tested in a HTRF assay as described in Example 1. […] Additionally, reactions using a short FRET peptide (Rh-[…]-quencher (SEQ ID NO:54), Invitrogen) were also performed identically to the HTRF reactions. The resulting fluorogenic products from the control reactions were measured as above, but at an excitation wavelength of 545 nm and an emission wavelength of 585 nm. Obtained data were analyzed using GraphPad Prism 5™ (LaJolla, Calif.).
(In general: TR-FRET usually uses a lanthanide donor and a delayed reading to cut background.)

The test system of the next data set is Aβ1-40 in wild-type mice. Nature of the data set: Wild-type mice, single IV dose, Aβ1-40 levels. As to conditions: 50 mg/kg single IV. The class given is in vivo, mouse. As to the method: The ability of anti-BACE1 antibodies YW412.8.31 to modulate amyloidogenic processing was also assessed in wild-type mice. Briefly, experiments were performed as described above. A single dose of control IgG antibody or YW412.8.31 anti-BACE1 antibody (50 mg/kg) was delivered systemically by intravenous (IV) injection to wild-type mice. After 24 or 48 hours, plasma and brain samples were harvested and Aβ1-40 levels were analyzed. The concentrations of total mouse Aβ1-40 in plasma and brain were determined using a sandwich ELISA following similar procedures described below for measuring total anti-BACE1 antibody concentrations. Briefly, rabbit polyclonal antibody specific for the C terminus of Aβ1-40 (Millipore, Bedford, Mass.) was coated onto plates, and biotinylated anti-mouse Aβ monoclonal antibody M3.2 (Covance, Dedham, Mass.) was used for detection. The assay had lower limit of quantification values of 1.96 pg/ml in plasma and 39.1 pg/g in brain. As is shown in FIG. 16, panel B, Plasma Aβ1-40 was reduced by 35% and cortical Aβ1-40 was reduced by 20%.

Data set [1] in a line: Antibody concentration in serum and brain of wild-type mice. The class given is in vivo, mouse. As to the method:
Total anti-BACE1 antibody concentrations in mouse serum and brain samples were measured as follows. Antibody concentrations in mouse serum and brain samples were measured using an enzyme-linked immunosorbent assay (ELISA). NUNC 384 well Maxisorp immunoplates (Neptune, N.J.) were coated with F(ab′)2 fragment of donkey anti-human IgG, Fc fragment specific polyclonal antibody (Jackson ImmunoResearch, West Grove, Pa.) overnight at 4° C. Plates were blocked with phosphate-buffered saline (PBS) containing 0.5% bovine serum albumin (BSA) for 1 hour at room temperature the next day. Each antibody (Control IgG and anti-BACE1) was used as a standard to quantify the respective antibody concentrations. After washing plates with PBS containing 0.05% Tween 20 using a microplate washer (Bio-Tek Instruments, Inc., Winooski, Vt.), standards and samples diluted in PBS containing 0.5% BSA, 0.35 M NaCl, 0.25% CHAPS, 5 mM EDTA, 0.05% Tween 20 and 15 ppm Proclin were incubated on plates for 2 hours at room temperature with mild agitation. Bound antibody was detected with horseradish peroxidase conjugated F(ab′)2 goat anti-human IgG, Fc specific polyclonal antibody (Jackson ImmunoResearch). Finally, plates were developed using the substrate 3,3′,5,5′-tetramethyl benzidine (TMB) (KPL, Inc., Gaithersburg, Md.). Absorbance was measured at a wavelength of 450 nm with a reference of 630 nm on a Multiskan Ascent reader (Thermo Scientific, Hudson, N.H.). Concentrations were determined from the standard curve using a four-parameter non-linear regression program.

A further data set concerns mouse cortical neurons. In words: Antibody internalization in primary neurons. The class given is cell-based. As to the method:
BACE1 is known to be expressed intracellularly, particularly in the Golgi. To ascertain whether or not YW412.8.31 interacts with BACE1 in an intracellular environment, internalization studies were performed. One set of neuronal cultures was prepared from E13.5 dorsal root ganglia (DRG) explants, and a second set of neuronal cultures was prepared from E16.5 dissociated cortical neurons from BACE1+/+ or BACE1−/− mice and cultured for 24 or 72 hours, respectively, at 37° C. Media containing 0.5 μM YW412.8.31 anti-BACE1 antibody was added to the cultures for time periods varying from 30 minutes to 2 hours, and incubated at either 4° C. or 37° C. Unbound antibody was washed out thoroughly with PBS after treatment. […] Bound antibody was detected using a secondary Alexa 568-conjugated anti-Human IgG1 antibody (Molecular Probes) according to the manufacturer's directions.
Additionally, mouse cortical neurons were cultured in the presence of YW412.8.31 anti-BACE1 antibody or a control IgG for 10 minutes or 3 hours, after which the antibody was detected by immunostaining Neuronal cultures were prepared from E15.5 dissociated cortical neurons, and cultured for 14 DIV. […] Bound antibody was detected using an Alexa 568-conjugated anti-Human IgG1 secondary antibody (Molecular Probes). […]

The mark [2] stands for this setting: 30 mg/kg IP every 4 days, 3 doses.
Where [3] appears, read: 100 mg/kg IP every 4 days, 3 doses.

Sequence of BACE1 (P56817 22-457): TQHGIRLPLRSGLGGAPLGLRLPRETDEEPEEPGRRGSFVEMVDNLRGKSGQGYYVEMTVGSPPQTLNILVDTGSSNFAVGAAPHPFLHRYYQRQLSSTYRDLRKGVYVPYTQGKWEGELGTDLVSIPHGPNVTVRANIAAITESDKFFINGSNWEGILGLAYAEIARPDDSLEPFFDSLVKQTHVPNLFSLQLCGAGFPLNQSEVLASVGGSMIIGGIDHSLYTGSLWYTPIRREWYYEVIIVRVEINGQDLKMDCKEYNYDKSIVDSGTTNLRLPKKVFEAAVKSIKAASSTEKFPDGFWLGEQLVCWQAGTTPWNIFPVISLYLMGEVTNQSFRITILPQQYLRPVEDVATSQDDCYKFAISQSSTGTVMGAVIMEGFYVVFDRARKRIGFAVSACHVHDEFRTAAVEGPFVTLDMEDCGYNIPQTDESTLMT

B1: YW412.8.31: affinity matured form of YW412.8 anti-BACE1 antibody (antibody, V domains shown)
VH: EVQLVESGGGLVQPGGSLRLSCAASGFTFLGYGIHWVRQAPGKGLEWVGWISPAGGSTDYADSVKGRFTISADTSKNTAYLQMNSLRAEDTAVYYCARGPFSPWVMDYWGQGTLVTVSS
VL: DIQMTQSPSSLSASVGDRVTITCRASQDVSTAVAWYQQKPGKAPKLLIYSASFLYSGVPSRFSGSGSGTDFTLTISSLQPEDFATYYCQQFPTYLPTFGQGTKVEIK
In the data set with BACE1, B1 had a maximal inhibition of 77%. Moreover, the “reduction of cortical Aβ1-40” value in the data set with Aβ1-40 in wild-type mice (24 or 48 hours) is listed as 20%. For the same molecule, in the data set with Aβ1-40 in wild-type mice (at 24 hr), the “reduction of plasma Aβ1-40” value came out at 35%. In data set [1] (setting [2]), the concentration in brain was 0.9±0.6 μg/g and 5.9±4.3 nM; the concentration in serum worked out at 480 ± 210 µg/mL. In data set [1] (setting [3]), the concentration in brain is 3.0±1.6 μg/g and 20±10 nM; the concentration in serum was found to be 1500 ± 440 µg/mL. Moreover, in data set [1] (100 mg/kg single IP, 4 hours), the “brain concentration as share of concentration in serum” value is reported as ~0.07%; the concentration in brain is 0.7±0.4 μg/g and 4.7±2.7 nM; the concentration in serum was 1040±140 μg/mL and 6.9±0.9 μM. The “localization of antibody signal” value with mouse cortical neurons (1 μM, 10 minutes to 3 hours, 37° C.) is “localized intracellularly”. Moreover, the “co-localization with vesicular compartment markers” value with mouse cortical neurons (TfR, VAMP4, LAMP1 co-staining) is “co-localized with markers for early endosomes and TGN, but not lysosomes”.
